{"source": "patent US20150217006A1", "about": "(IMMUNOMEDICS, published 2015)", "key": {"[1]": {"target": "T1, gastrin-releasing peptide receptor (GRPR) (human, UniProt P30550 1-384)", "T1 construct": "whole, on cells; also called GRP receptor; GRP-receptor", "T1 sequence (P30550 whole entry)": "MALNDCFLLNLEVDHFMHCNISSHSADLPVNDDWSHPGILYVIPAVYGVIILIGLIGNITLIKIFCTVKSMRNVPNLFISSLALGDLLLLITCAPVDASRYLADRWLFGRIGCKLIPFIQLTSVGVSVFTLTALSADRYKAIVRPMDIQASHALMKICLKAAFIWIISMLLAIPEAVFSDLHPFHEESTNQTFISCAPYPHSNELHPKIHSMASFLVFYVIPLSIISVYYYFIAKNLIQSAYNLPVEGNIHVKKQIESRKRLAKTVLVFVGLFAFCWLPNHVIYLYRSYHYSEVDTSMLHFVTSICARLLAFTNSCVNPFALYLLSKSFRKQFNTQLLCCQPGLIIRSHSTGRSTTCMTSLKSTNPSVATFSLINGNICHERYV", "test": "competition with 125I-Bombesin on PC-3 cells, inhibitor 56 to 0.44 nM", "method": "(§1) We used IMP333 as a non-specific control. […] A range of 56 to 0.44 nM was used as our inhibitory concentrations."}, "[2]": {"target": "T1, gastrin-releasing peptide receptor …", "test": "competition with 125I-BBN on PC-3 cells, repeat experiment, inhibitor 250 to 2 nM", "method": "as §1\nThis experiment was repeated using a commercially available BBN peptide. We increased the amount of inhibitory peptide from 250 to 2 nM to block the ¹²⁵I-BBN from binding to PC-3 cells."}}}
{"binder": "QWVWAVGHLM (HELM PEPTIDE1{[O=C(O)CN1CCN(CC(=O)O)CCN(CC(=O)[*:2])CC1].[O=C(CCCCCCCN[*:1])[*:2]].Q.W.V.W.A.V.G.H.L.M.[am]}$$$$V2.0; SMILES CSCC[C@H](NC(=O)[C@H](CC(C)C)NC(=O)[C@H](Cc1c[nH]cn1)NC(=O)CNC(=O)[C@@H](NC(=O)[C@H](C)NC(=O)[C@H](Cc1c[nH]c2ccccc12)NC(=O)[C@@H](NC(=O)[C@H](Cc1c[nH]c2ccccc12)NC(=O)[C@H](CCC(N)=O)NC(=O)CCCCCCCNC(=O)CN1CCN(CC(=O)O)CCN(CC(=O)O)CC1)C(C)C)C(C)C)C(N)=O, also called NOTA-conjugated bombesin derivative)", "note": "[IMP468 (NOTA-NH-(CH2)7CO-Gln-Trp-Val-Trp-Ala-Val-Gly-His-Leu-Met-NH2)]", "values": [{"measurement": "IC50", "setting": "[1]", "result": 21.5, "unit": "nM"}, {"measurement": "IC50", "setting": "[2]", "result": 35.9, "unit": "nM"}]}
